Results: patent US7556938B1, “Nucleic acids encoding potassium channel interactors” (Millennium Pharmaceuticals, Inc., priority 1998, dated 2009)

What was measured:
[1] = target: T1, rKv4.2 (Rattus norvegicus, UniProt Q63881); experiment: Patch-clamp of Kv4.2 currents in CHO cells coexpressing KChIPs; assay type: cell-based; conditions: for effects on Kv4.2 current density and kinetics: coexpressed with Kv4.2
T1 construct: expressed in transfected cells; host or cells: CHO cells, transient transfection with GFP co-transfected
T1 sequence (Q63881 1-630): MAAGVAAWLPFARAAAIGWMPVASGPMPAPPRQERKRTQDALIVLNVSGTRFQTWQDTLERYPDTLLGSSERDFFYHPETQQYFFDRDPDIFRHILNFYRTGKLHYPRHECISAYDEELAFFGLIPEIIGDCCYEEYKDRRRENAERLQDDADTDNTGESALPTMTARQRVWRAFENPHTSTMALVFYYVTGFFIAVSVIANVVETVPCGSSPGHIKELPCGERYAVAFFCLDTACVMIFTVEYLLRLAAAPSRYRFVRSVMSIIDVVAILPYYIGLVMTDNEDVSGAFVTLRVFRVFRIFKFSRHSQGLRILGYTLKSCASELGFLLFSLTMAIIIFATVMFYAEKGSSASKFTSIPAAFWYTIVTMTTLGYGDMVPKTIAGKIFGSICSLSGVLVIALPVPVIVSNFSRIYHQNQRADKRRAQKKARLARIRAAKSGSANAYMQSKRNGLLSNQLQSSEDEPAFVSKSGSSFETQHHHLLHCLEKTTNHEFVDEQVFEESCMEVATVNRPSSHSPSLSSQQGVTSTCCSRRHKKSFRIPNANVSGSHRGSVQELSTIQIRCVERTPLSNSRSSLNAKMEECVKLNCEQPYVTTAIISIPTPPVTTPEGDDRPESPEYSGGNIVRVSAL
Protocol: HEK 293 and CHO cells were used for recordings 1-3 days after a transient transfection. Whole-cell currents were recorded from cells expressing GFP, identified by their green fluorescence. […] After Gigaseal and ruptured whole-cell configuration access, resistance was less than 10 MOhms. Whole-cell bath solutions were made from a 10× Hank's balanced salt solution (GibcoBRL) with the following final concentration (in mM): 138 NaCl, 5.4 KCl, 1.3 MgCl2, 1.3 CaCl2, 5.5 D-Glukos and 10 HEPES, pH 7.4. The intracellular electrode solution consisted of (in mM) 140 KCl, 10 HEPES, 10 EGTA, 0.5 MgCl2, pH 7.3. All chemicals were from Sigma (St. Louis, Mo.) or Fisher Scientific (Houston, Tex.). Membrane currents were recorded using a EPC9 patch-clamp amplifier (HEKA, Germany). Data were analyzed using Matlab (Natick, Ma), and leak subtracted if necessary. All experiments were done at room temperature.
Because PCIPs, e.g., KChIP1 (1v), KChIP2 (9ql), and KChIP3 (p19), colocalize and coassociate with Kv4 α-subunits in brain, another critical question was to determine whether these PCIPs alter the conductance properties of Kv4 channels. To address this issue, Kv4.2 and Kv4.3 were expressed alone and in combination with individual PCIPs. CHO cells were transiently-transfected with cDNA using the DOTAP lipofection method as described by the manufacturer (Boehringer Mannheim, Inc.). Transfected cells were identified by cotransfecting enhanced GFP along with the genes of interest and subsequently determining if the cells contained green GFP fluorescence. Currents in CHO cells were measured using the patch-clamp technique (Hamill et al. 1981. Pfluegers Arch. 391: 85-100).
First, the amplitude of the Kv4.2 current increased approximately 7.5 fold in the presence of KChIP1 (amplitude of Kv4.2 alone=0.60+/−0.096 nA/cell; Kv4.2+KChIP1=4.5+/−0.55 nA/cell). […] Finally, the kinetics of Kv4.2 inactivation slowed considerably when Kv4.2 was coexpressed with KChIP1 (inactivation time constant of Kv4.2 alone=28.2+/−2.6 ms; Kv4.2+KChIP1=104.1+/−10.4 ms), while channels recovered from inactivation much more rapidly in cells expressing both Kv4.2 and KChIP1 (recovery tau=53.6+/−7.6 ms) versus cells expressing Kv4.2 alone (recovery tau=272.2+/−26.1 ms).

[2] = target: T2, rKv4.3N (Rattus norvegicus, UniProt Q62897); experiment: Yeast two-hybrid binding and specificity test, Kv4.3 N-terminal bait; conditions: for preference between rKv4.3N and rKv4.2N in yeast two-hybrid assay: rKv4.3N versus rKv4.2N
T2 construct: expressed in transfected cells; host or cells: yeast HF7c (bait), mated with Y187 (fish)
T2 sequence (Q62897 1-180): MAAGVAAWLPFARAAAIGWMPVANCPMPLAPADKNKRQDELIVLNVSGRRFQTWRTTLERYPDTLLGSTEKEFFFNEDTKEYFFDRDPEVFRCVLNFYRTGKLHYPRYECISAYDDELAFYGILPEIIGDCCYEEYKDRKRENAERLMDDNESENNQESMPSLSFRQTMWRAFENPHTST
Protocol: The first 180 amino acids of rKv4.3 (described in Serdio P. et al. (1996) J. Neurophys 75:2174-2179) were amplified by PCR and cloned in frame into pGBT9 resulting in plasmid pFWA2, (hereinafter “bait”). This bait was transformed into the two-hybrid screening strain HF7c and tested for expression and self-activation. The bait was validated for expression by Western blotting.
(§1) Two-hybrid screens were carried out essentially as described in Bartel, P. et al. (1993) “Using the Two-Hybrid System to Detect Polypeptide-Polypeptide Interactions” in Cellular Interactions in Development: A Practical Approach, Hartley, D. A. ed. Oxford University Press, Oxford, pp. 153-179, with a bait-library pair of rkv4.3 bait-rat mid brain library. A filter disk beta-galactosidase (beta-gal) assay was performed essentially as previously described (Brill et al. (1994) Mol. Biol. Cell. 5:297-312). Clones that were positive for both reporter gene activity (His and beta-galactosidase) were scored and fish, plasmids were isolated from yeast, transformed into E. coli strain KC8, DNA plasmids were purified and the resulting plasmids were sequenced by conventional methods (Sanger F. et al. (1977) PNAS, 74: 5463-67).
(§2) Positive interactor clones were subjected to a binding specificity test where they were exposed to a panel of related and unrelated baits by a mating scheme previously described (Finley R. L. Jr. et al. (1994) PNAS, 91(26):12980-12984). Briefly, positive fish plasmids were transformed into Y187 and the panel of baits were transformed into HF7c. Transformed fish and bait cells were streaked out as stripes on selective medium plates, mated on YPAD plates, and tested for reporter gene activity.

[3] = target: T3, rKv4.2N (Rattus norvegicus, UniProt Q63881); experiment: Yeast two-hybrid binding and specificity test, Kv4.2 N-terminal bait
T3 construct: the N-terminal domains of Kv4.3, Kv4.2 were expressed as “baits” (Kv4.3N, Kv4.2N, respectively); expressed in transfected cells; host or cells: yeast HF7c (baits), mated with Y187 (fish)
T3 sequence (Q63881 1-184 limits assumed): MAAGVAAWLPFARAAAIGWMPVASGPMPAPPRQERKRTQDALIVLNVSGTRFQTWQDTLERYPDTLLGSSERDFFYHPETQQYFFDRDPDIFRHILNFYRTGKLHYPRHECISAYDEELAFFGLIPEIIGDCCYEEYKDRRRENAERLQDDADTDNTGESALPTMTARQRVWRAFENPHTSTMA
Protocol: as §1, §2

[4] = target: T4, rKv1.1N (Rattus norvegicus, UniProt P10499); experiment: Yeast two-hybrid binding and specificity test, Kv1.1 N-terminal bait
T4 construct: expressed in transfected cells; host or cells: yeast HF7c (baits), mated with Y187 (fish)
T4 sequence (P10499 1-164 limits assumed): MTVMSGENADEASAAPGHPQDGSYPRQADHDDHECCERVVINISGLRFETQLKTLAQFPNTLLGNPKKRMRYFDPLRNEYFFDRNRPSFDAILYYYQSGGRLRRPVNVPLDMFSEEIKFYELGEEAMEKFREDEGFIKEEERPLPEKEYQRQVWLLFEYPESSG
Protocol: as §1, §2

B1: KChIP2: Potassium channel interacting protein KChIP2 (9ql) (protein)
chain: MRGQGRKESLSESRDLDGSYDQLTGHPPGPSKKALKQRFLKLLPCCGPQALPSVSETLAAPASLRPHRPRPLDPDSVEDEFELSTVCHRPEGLEQLQEQTKFTRRELQVLYRGFKNECPSGIVNEENFKQIYSQFFPQGDSSNYATFLFNAFDTNHDGSVSFEDFVAGLSVILRGTIDDRLSWAFNLYDLNKDGCITKEEMLDIMKSIYDMMGKYTYPALREEAPREHVESFFQKMDRNKDGVVTIEEFIESCQQDENIMRSMQLFDNVI
effects on Kv4.2 current density and kinetics [1]: strikingly similar to those produced by KChIP1

B2: KChIP3: Potassium channel interacting protein KChIP3 (p19) (protein)
chain: MQRTKEAMKASDGSLLGDPGRIPLSKREGIKWQRPRFTRQALMRCCLIKWILSSAAPQGSDSSDSELELSTVRHQPEGLDQLQAQTKFTKKELQSLYRGFKNECPTGLVDEDTFKLIYSQFFPQGDATTYAHFLFNAFDADGNGAIHFEDFVVGLSILLRGTVHEKLKWAFNLYDINKDGYITKEEMLAIMKSIYDMMGRHTYPILREDAPLEHVERFFQKMDRNQDGVVTIDEFLETCQKDENIMSSMQLFENVI
effects on Kv4.2 current density and kinetics [1]: strikingly similar to those produced by KChIP1

B3: KChIP1 ΔN2-31: N-terminal truncation mutant of KChIP1, reduced to the C-terminal 185 amino acid core sequence (protein)
chain: MLCSSLKLLHYLGLIDLSDDKIEDDLEMTMVCHRPEGLEQLEAQTNFTKRELQVLYRGFKNECPSGVVNEETFKQIYAQFFPHGDASTYAHYLFNAFDTTQTGSVKFEDFVTALSILLRGTVHEKLRWTFNLYDINKDGYINKEEMMDIVKAIYDMMGKYTYPVLKEDTPRQHVDVFFQKMDKNKD
effects on Kv4.2 current density and kinetics [1]: indistinguishable from the effects produced by full-length KChIP1 or KChIP2 | Inactivation time constant (ms, at 50 mV) ([1]; rKv4.2 coexpressed with the KChIP, at 50 mV): 129.2 ± 14.2 ms

B4: Rat 33b07: PCIP of 407 amino acid residues, homologous to SET and Nucleosome Assembly Proteins (protein)
chain: MNGVEGNNELPLANTSTSALVPEDLDLKQDQPLSEETDTVREMEAAGEAGAEGGASPDSEHCDPQLCLRVAENGCAAAAGEGLEDGLSSSKCGDAPLASVAANDSNKNGCQLAGPLSPAKPKTLEASGAVGLGSQMMPGPKKTKVMTTKGAISATTGKEGEAGAAMQEKKGVQKEKKAAGGGKDETRPRAPKINNCMDSLEAIDQELSNVNAQADRAFLQLERKFGRMRRLHMQRRSFIIQNIPGFWVTAFRNHPQLSPMISGQDEDMMRYMINLEVEELKHPRAGCKFKFIFQSNPYFRNEGLVKEYERRSSGRVVSLSTPIRWHRGQEPQAHIHRNREGNTIPSFFNWFSDHSLLEFDRIAEIIKGELWSNPLQYYLMGDGPRRGVRVPPRQPVESPRSFRFQSG
binding to rKv4.3N in yeast two-hybrid assay [2]: binds | preference between rKv4.3N and rKv4.2N in yeast two-hybrid assay [2]: slight preference for rKv4.2N | binding to rKv4.2N in yeast two-hybrid assay [3]: binds | binding to rKv1.1N in yeast two-hybrid assay [4]: does not bind

B5: Rat 1p: partial rat PCIP of 267 amino acid residues, similar to human Restin (protein)
chain: LKGARPRVVNSTCSDFNHGSALHIAASNLCLGAAKCLLEHGANPALRNRKGQVPAEVVPDPMDMSLDKAEAALVAKELRTLLEEAVPLSCTLPKVTLPNYDNVPGNLMLSALGLRLGDRVLLDGQKTGTLRFCGTTEFASGQWVGVELDEPEGKNDGSVGGVRYFICPPKQGLFASVSKVSKAVDAPPSSVTSTPRTPRMDFSRVTGKGRREHKGKKKSPSSPSLGSLQQREGAKAEVGDQVLVAGQNRDCAFLWEDRLCSRLLVWH
binding to rKv4.3N in yeast two-hybrid assay [2]: binds | preference between rKv4.3N and rKv4.2N in yeast two-hybrid assay [2]: slight preference for rKv4.3N | binding to rKv4.2N in yeast two-hybrid assay [3]: binds | binding to rKv1.1N in yeast two-hybrid assay [4]: does not bind

B6: Rat 7s: rat ortholog of the human vacuolar H(+)-ATPase catalytic subunit A (partial) (protein)
chain: ADSTSRWAEALREISGRLAEMPADSGYPAYLGARLASFYERAGRVKCLGNPEREGSVSIVGAVSPPGGDFSDPVTSATLGIVQVFWGLDKKLAQRKHFPSVNWLISYSKYMRALDEYYDKHFTEFVPLRTKAKEILQEEEDLAEIVQLVGKASLAETDKITLEVAKLIKDDFLQQNGYTPYDRFCPFYKTVGMLSNMISFYDMARRAVETTAQSDNKITWSIIREHMGEILYKLSSMKFKDPVKDGEAKIKADYAQLLEDMQNAFRSLED
binding to rKv4.3N in yeast two-hybrid assay [2]: binds | preference between rKv4.3N and rKv4.2N in yeast two-hybrid assay [2]: preference for rKv4.3N | binding to rKv4.2N in yeast two-hybrid assay [3]: binds | binding to rKv1.1N in yeast two-hybrid assay [4]: does not bind
